Test results published in US20250340623A1 (AC IMMUNE, published 2025).
Where a chain is given by its changes, count along the chain named. Values belong to the binder of their own block, whether it stands above or below them.

Columns and labels:
[1] = target: T1, monomeric alpha-synuclein (UniProt P37840 1-140); assay: SPR, captured bAb
Description: (§1) Any non-covalently bound antibodies were removed by three successive regenerations of 10 mM Glycine pH 1.7 (GE Healthcare, 28-9950-84). Immobilization levels were evaluated following ethanolamine capping (Bound) and finally following regeneration (Final). Non-covalent immobilization of alpha-synuclein biparatopic antibodies on flow cell 2 of channels 1-8 was performed at a final concentration of 5 μg/mL, diluted in 10 mM sodium acetate pH 5.5 (GE Healthcare, BR-1003-52). Non-covalent immobilization of an isotype control antibody on flow cell 1 of channels 1-8 was performed at a final concentration of 5 μg/mL, diluted in 10 mM sodium acetate pH 5.5 (GE Healthcare, BR-1003-52).
(§2) Binding affinity of alpha-synuclein biparatopic antibodies to monomeric or fibrillar alpha-synuclein species was performed using a single-cycle kinetics method. The instrument was primed with 1×HBS-P+ buffer (10× stock from GE Healthcare, BR-1003-52 diluted in Milli-Q water). Injections of monomeric alpha-synuclein (Boston Biochem, SP-485), increasing in concentration from 0.62-50 nM prepared from serial 2-fold dilutions, were performed with contact times of 300 sec/injection at a flow rate of 30 μL/min. A dissociation phase of 900 sec followed the final 50 nM injection. Regeneration of the sensor to the goat anti-human antibody layer was achieved using 3 regenerations of 10 mM Glycine pH 1.7. […] Regeneration of the sensor to the goat anti-mouse antibody layer was achieved using 3 regenerations of 10 mM Glycine pH 1.7. Results obtained from single-cycle kinetics were evaluated by Biacore 8K evaluation software with 1:1 binding homogenous Langmuir model with a preceeding buffer injection as a blank subtraction. The following kinetic parameters were obtained: on-rate (ka), off-rate (kd), affinity constant (KD, ratio of kd by ka), maximum response (Rmax), and goodness of fit (Chi2).
(§3) Kinetic constants were determined from 1:1 homogenous binding models for all cases.

[2] = target: T2, alpha-synuclein fibrils (UniProt P37840 1-140); assay: SPR, captured bAb
Description: as §1, §2, §3

[3] = target: T1, monomeric alpha-synuclein; assay: SPR, captured bAb; head says nM, kd/ka gives M
Description: as §1, §2, §3

[4] = target: T2, alpha-synuclein fibrils; assay: SPR, captured bAb; head says nM, kd/ka gives M
Description: as §1, §2, §3

B2: ACI-27D8_4317A4 (bispecific antibody, V domains shown)
VH 1: EVQLVESGGGLVQPKGSLKLSCAASGFTFNTYAMNWVRQAPGKGLEWVARIRSKSNNFATYYADSVKDRFTISRDESESMLYLQMNNLKAEDTAMYYCVRSFDYWGQGTTLTVSS
VL 1: DIKMTQSPSSMYASLGERVTITCKASQDINSYLSWFQQKPGKSPKTLIYRAKRLVDGVPSRFSGSGSGQDYSLTISSLEYEDMGIYYCLQYDEFPFTFGSGTKLEIK
VH 2: EVQLQQSGAELVRPGASVKLSCTASGFNIKDDYMHWVKQRPEQGLEWIGWIDPENGDTEYASKFQGKATMTADTSSNTAYLQLSSLTSEDTAVYYCKTWGTTQALFPYWGQGTLVTVSA
VL 2: DIVMTQSQKFMYTSVGDRVSITCKASQNVGNAVGWYQQKAGQSPKLLIHSASNRYTGVPDRFTGTGSGTDFTLTINNMQSEDLADYFCQQYRSYPLTFGAGTKLELK
notes: biparatopic; Arm A ACI-8033-27D8-Ab1, Arm B ACI-7088-4317A4-Ab1; engineered constant domains not specified
koff [1]: 0.0283 s⁻¹ | kon [1]: 7.94e+06 M⁻¹ s⁻¹ | koff [2]: 5.8e-05 s⁻¹ | kon [2]: 65400 M⁻¹ s⁻¹ | Kd [3]: 3.57 nM | Kd [4]: 0.887 nM

B5: ACI-3112H1_3108C10 (bispecific antibody, V domains shown)
VH 1: EVQLQQSGPELVKPGASVKISCKASGYTFSDYFMNWVKQSHGKSLEWIGDINPNNGGSSYIQKFKGKATLTVDKSSTTAYMELRSLTSEDSAVYYCARGSNYAMDSWGQGTSVTVSS
VL 1: DIVMSQSPSSLAVSAGEKVTMSCKSSQSLLNSRTRKNYLAWYQQKPGQSPKLLIYWASTRESGVPDRFTGSGSGTDFTLTISSVQAEDLAVYYCKQSYDLWTFGGGTKLEIK
VH 2: ELQLVESGGGLVRPGGSLKLSCATSGFTFRNYAMSWVRQTPAKRLEWVATISDGGTYTFYSDNVKGRFTISRDNVKNTLYLQMSHLKSEDTAMYYCSRAGSGHWGQGTTLTVSS
VL 2: not shown
notes: biparatopic; Arm A ACI-7079-3112H1-Ab1, Arm B ACI-7079-3108C10-Ab2; engineered constant domains not specified
koff [1]: 0.0162 s⁻¹ | kon [1]: 5540 M⁻¹ s⁻¹ | koff [2]: 0.000472 s⁻¹ | kon [2]: 7650 M⁻¹ s⁻¹ | Kd [3]: 2920 nM | Kd [4]: 61.7 nM

B7: ACI-27D8_4301D5 (bispecific antibody, V domains shown)
VH 1: B2 VH 1
VL 1: B2 VL 1
VH 2: QVQLQQSGPELVRPGASVKISCKASGYRFTSYYIHWVKQRPGQGLEWIGWIYPGSDNTKHNDKFKGKATLTADTSSSTAYMQLSSLTSEDSAVYFCARDYDVGFGYWGQGTLVTVSS
VL 2: not shown
notes: biparatopic; Arm A ACI-8033-27D8-Ab1, Arm B ACI-7088-4301D5-Ab2; engineered constant domains not specified
koff [1]: 0.147 s⁻¹ | kon [1]: 1.37e+06 M⁻¹ s⁻¹ | koff [2]: 0.000219 s⁻¹ | kon [2]: 13100 M⁻¹ s⁻¹ | Kd [3]: 107 nM | Kd [4]: 16.7 nM

B9: ACI-1101C8_4301E12 (bispecific antibody, V domains shown)
VH 1: EVQLVESGGGLVQPKGSLKLSCAASGFSFNIYAMNWVRQAPGKGLEWVARIRSKSNNYATYYADSVKDRFTISRADSESMLYLQMNNLKTEDTAMYYCVRVGLRFYAMDYWGQGTSVTVSS
VL 1: DVLMTQTPLSLPVSLGDQASISCRSSQSIVHSNGNTYLEWYLQKPGQSPKLLIYKVSNRFSGVPDRFSGSGSGTDFTLKISRVEAEDLGVYYCFQGSQGPLTFGAGTKLELK
VH 2: DVQLQESGPGLVKPSQSLSLTCSVTGYSITSGYYWNWIRQFPGNKLEWMGYISDDGSKNYNPSLKNRISITRDTSKNQLFMKLNSVTTEDTATYYCARGDSRLGQGTLVTVSA
VL 2: not shown
notes: biparatopic; Arm A ACI-7067-1101C8-Ab2, Arm B ACI-7088-4301E12-Ab2; engineered constant domains not specified
koff [1]: 0.000444 s⁻¹ | kon [1]: 224000 M⁻¹ s⁻¹ | koff [2]: 9.65e-07 s⁻¹ | kon [2]: 44900 M⁻¹ s⁻¹ | Kd [3]: 1.98 nM | Kd [4]: 0.0215 nM

B10: ACI-1101C8_5A12 (bispecific antibody, V domains shown)
VH 1: B9 VH 1
VL 1: B9 VL 1
VH 2: QVHLKQSGADLVRPGASVKLSCKASGYTFTDYYINWVKQRPGQGLEWIARIYPGSGNTYYNEKFKGRATLSAEKSSTTAYMQLSSLTSEDSAVYFCVVGYYGAWGQGTTLTVSS
VL 2: DVVMTQTPLSLPVSLGDQASISCRSSQSLVHSNGKTHLHWYLQKPGQSPKLLIYKVSNRFSGVPDRFSGSGSGTDFTLKISRVEAEDLGVYFCSQSTHVPWTFGGGTKLEIK
notes: biparatopic; Arm A ACI-7067-1101C8-Ab2, Arm B ACI-8033-5A12-Ab1; engineered constant domains not specified
koff [1]: 0.0042 s⁻¹ | kon [1]: 1.1e+06 M⁻¹ s⁻¹ | koff [2]: 6.13e-05 s⁻¹ | kon [2]: 46700 M⁻¹ s⁻¹ | Kd [3]: 3.82 nM | Kd [4]: 1.31 nM

B11: ACI-1101C8_4317A4 (bispecific antibody, V domains shown)
VH 1: B9 VH 1
VL 1: B9 VL 1
VH 2: B2 VH 2
VL 2: B2 VL 2
notes: biparatopic; Arm A ACI-7067-1101C8-Ab2, Arm B ACI-7088-4317A4-Ab1; engineered constant domains not specified
koff [1]: 0.00158 s⁻¹ | kon [1]: 2.35e+06 M⁻¹ s⁻¹ | koff [2]: 3e-05 s⁻¹ | kon [2]: 69300 M⁻¹ s⁻¹ | Kd [3]: 0.671 nM | Kd [4]: 0.433 nM

The next lines start with the values.

koff [1]: 0.000675 s⁻¹ | kon [1]: 1.39e+06 M⁻¹ s⁻¹ | koff [2]: 7.77e-06 s⁻¹ | kon [2]: 49200 M⁻¹ s⁻¹ | Kd [3]: 0.486 nM | Kd [4]: 0.158 nM
B1: ACI-4317A4_1113D10 (bispecific antibody, V domains shown)
VH 1: B2 VH 2
VL 1: B2 VL 2
VH 2: EVQLVESGGGLVQPKGSLKLSCAASGFTFNTYALHWVRQAPGKGLEWVARIRSKSSNYATYYADSVKDRFTISRDDSQSMLYLQMNNLKTEDTGMYYCVRGGVSPFDYWGQGTTLTVSS
VL 2: QIVLTQSPAIMSASPGEKVTMTCSASSSVSYMHWYQQKSGTSPKRWIYDTSKLASGVPARFSGSGSGTSYSLTISSMEAEDSATYYCQQWSNNPPTFGGGTKLEIK
notes: biparatopic; Arm A ACI-7088-4317A4-Ab1, Arm B ACI-7067-1113D10-Ab1; engineered constant domains not specified

koff [1]: 0.023 s⁻¹ | kon [1]: 2280 M⁻¹ s⁻¹ | koff [2]: 0.000315 s⁻¹ | kon [2]: 13500 M⁻¹ s⁻¹ | Kd [3]: 10100 nM | Kd [4]: 23.4 nM
B3: ACI-3108C10_3112H1 (bispecific antibody, V domains shown)
VH 1: B5 VH 2
VL 1: not shown
VH 2: B5 VH 1
VL 2: B5 VL 1
notes: biparatopic; Arm A ACI-7079-3108C10-Ab2, Arm B ACI-7079-3112H1-Ab1; engineered constant domains not specified

koff [1]: 8.05 s⁻¹ | kon [1]: 9.13e+08 M⁻¹ s⁻¹ | koff [2]: 0.000113 s⁻¹ | kon [2]: 10500 M⁻¹ s⁻¹ | Kd [3]: 8.82 nM | Kd [4]: 10.8 nM
B4: ACI-3108C10_5A12 (bispecific antibody, V domains shown)
VH 1: B5 VH 2
VL 1: not shown
VH 2: B10 VH 2
VL 2: B10 VL 2
notes: biparatopic; Arm A ACI-7079-3108C10-Ab2, Arm B ACI-8033-5A12-Ab1; engineered constant domains not specified

koff [1]: 0.0361 s⁻¹ | kon [1]: 1.04e+06 M⁻¹ s⁻¹ | koff [2]: 0.000418 s⁻¹ | kon [2]: 8220 M⁻¹ s⁻¹ | Kd [3]: 34.8 nM | Kd [4]: 50.8 nM
B6: ACI-4301H3_3108C10 (bispecific antibody, V domains shown)
VH 1: B5 VH 1 with S30A, S58T, S59T, I61N, T77N, S100R, S106Y
VL 1: B5 VL 1 with W56S, S73F
VH 2: B5 VH 2
VL 2: not shown
notes: biparatopic; Arm A ACI-7088-4301H3-Ab2, Arm B ACI-7079-3108C10-Ab2; engineered constant domains not specified

koff [1]: 0.00129 s⁻¹ | kon [1]: 1.43e+06 M⁻¹ s⁻¹ | koff [2]: 1.49e-05 s⁻¹ | kon [2]: 73600 M⁻¹ s⁻¹ | Kd [3]: 0.903 nM | Kd [4]: 0.203 nM
B8: ACI-1108H1_4303A3 (bispecific antibody, V domains shown)
VH 1: EVKLVESGGGLVQPGGSMKLSCTASGFTFSDAWMNWVRQSPEKGLEWVAEIRNKAHNHATNYAESVKGRFTISGDDSKSSVYLQMNNLRAEDTGIYYCTIYSFWGQGTLVTVSA
VL 1: SIVMTQTPKFLLVSAGDRVTITCKASQSVTNYVAWYHQKPGQSPKLLIYSASNRYSGVPDRFTGSGYGTDFTFTINTVQTEDLAVYFCQQDYRIPYTFGGGTKLEIK
VH 2: QVQLQQSGAELVRPGASVTLSCKASGYTFTDYEMHWVKQTPVHGLEWIGVIDPETGGAVQNQKFKGKAILTADNSSSTAYMDLRSLTSEDSAVYNCAMGAALRLAYWGQGTLVTVSS
VL 2: B9 VL 1 with T36S, S81N, Q98H, G99V, L101F, A105S, L111I
notes: biparatopic; Arm A ACI-7067-1108H1-Ab1, Arm B ACI-7088-4303A3-Ab1; engineered constant domains not specified
